Laboratory results taken from US20030026781A1, “Compositions and methods for regulating endogenous inhibitor of ATP synthase, including treatment for diabetes” (MitoKor, priority 1999, published 2003).
“Also recorded” adds a separate entry of the source. Read-outs that look alike come from different tables or passages of the source.

Columns and labels:
[1] = target: T1, mitochondrial ATP synthase (ETC Complex V) in rat liver submitochondrial particles (Rattus norvegicus, UniProt P10719+P15999); assay: Oligomycin-sensitive ATPase (ATP hydrolase) activity in rat liver submitochondrial particles (SMP); type: biochemical; details: read-out: IC50 for oligomycin-sensitive ATPase inhibition
T1 construct: rat liver submitochondrial particles (SMP) prepared from male Sprague-Dawley rat livers; from tissue; host or cells: male Sprague-Dawley rat liver, submitochondrial particles (method of Walker et al. 1995)
Method: The IF1(42-58) polypeptide was also tested for its ability to inhibit the F0-F1-ATPase in rat ASMPs (alkaline submitochondrial particles) prepared as in the preceding Example. […] ATP hydrolase activity was expressed as the percent of detectable activity in the absence of added IF1-containing fusion protein, and the level of oligomycin-inhibitable activity was also determined (FIG. 8).
The effects of the IF1 peptides on ATPase activity were determined by assaying ATPase in rat liver submitochondrial particles (SMP) prepared from male Sprague-Dawley rat livers according to the method of Walker et al. (1995 Meth. Enzymol. 260:163-190). […] Louis, Mo., unless otherwise noted) for 10 min at room temperature. The mixtures were then added to assay buffer (50 mM Tris-HCl, 3.3 mM MgCl2, pH 8.0) in a 96-well plate and ATPase activity was initiated by the addition of 1 mM ATP, 1 mM phophoenolypyruvate, 3 U/ml pyruvate kinase, 10 U/ml lactate dehydrogenase and 0.3 mM NADH. Reactions were monitored by recording absorbance in “kinetic read” mode at 340 nm for 10 min at 30° C. in a termperature-controlled Spectromax Plus-384™ 96-well plate reader (Molecular Devices, Inc., Sunnyvale, Calif.) according to the manufacturer's instructions. In this mode, the plate reader recorded an absorbance value for each well at approximately nine-second intervals. A parallel set of reactions was set up identically except for the addition of 10 μg/ml oligomycin, to correct for the component of ATPase activity that was oligomycin-inhibitable.
Dose-response curves were generated for IF1 peptides 14-33 (SEQ ID NO:30), 14-47 (SEQ ID NO:29), 14-46 (SEQ ID NO:67), 14-45 (SEQ ID NO:66), 14-44 (SEQ ID NO:65), 14-43 (SEQ ID NO:64) and 14-42 (SEQ ID NO:63) by setting up SMP ATPase reactions as described above with serial dilutions of the IF1 peptides over a range of several orders of magnitude between 10^−4 and 10^2 μM (FIG. 12). Data were plotted and IC50 values were calculated using Prism software (GraphPad, San Diego, Calif.) according to the nianufacturer's instructions. […]

INS-1 cells = assay: Glucose-stimulated insulin secretion (GSIS) in INS-1 cells with tat.mito.14-47; type: cell-based, rat; details: 8 mM glucose, varying amounts of fusion protein, FIG. 13
Method: The nucleic acid encoding a tat.mito.14-47 fusion protein was constructed essentially as described in Example 2. The tat.mito.14-47 fusion protein (SEQ ID NO:71) enhanced GSIS in INS-1 cells when used in the assay conditions described as follows. Briefly, INS-1 cells were seeded into 12-well plates containing RPMI media supplemented as described at 0.7×10^6 cells/well and cultured at 37° C., 5% CO2 for 2 days. Cells were preincubated in the presence or absence of varying amounts of tat.mito.14-47 or vehicle control in glucose-free RPMI media supplemented with 1% FCS for 1 hr at 37° C. in a humidified 5% CO2/95% air atmosphere. Cells were rinsed with glucose-free modified KRH buffer (134 mM NaCl, 3.6 mM KCl, 0.5 mM NaH2PO4, 0.5 mM MgCl2, 1.5 mM CaCl2, 10 mM HEPES, 5 mM NaHCO3, 0.1% BSA), incubated in the same buffer for 30 min at 37° C. in a humidified 5% CO2/95% air atmosphere, again in the presence or absence of varying amounts of tat.mito.14-47 or vehicle control. Then fresh modified KRH buffer containing 0.25 mM isobutylmethyl xanthine and 8 mM glucose was added, the cells were stimulated for 30 min at 37° C., 5% CO2 and then culture supernatants were collected. Insulin concentrations in the supernatants were measured by immunoasssay (Alpco ELISA Kit) and normalized to protein (Pierce/BCA Kit) according to the manufacturers' instructions.

B1: rat IF1: intact rat inhibitor protein of mitochondrial ATP synthase (SEQ ID NO:13), comparator for peptide 14-47 (protein, listed as Rattus norvegicus)
chain: MAGSALAVRARLGVWGMRVLQTRGFGSDSSESMDSGAGSIREAGGAFGKREKAEEDRYFREKTREQLAALKKHHEDEIDHHSKEIERLQKQIERHKKKIKYLKNSEH
- IC50 ([1]; pH 6.5): 190 ± 24 nM
- IC50 ([1]; pH 7.25): 420 ± 56 nM
- IC50 ([1]; pH 8): > 800 nM

B2: tat.mito.14-47: fusion protein SEQ ID NO:71: polyhistidine tag, tat, mitochondrial targeting sequence, IF1 fragment 14-47 (protein)
chain: MGGSHHHHHHGMASMTGGQQMGRDLYDDDDKDPSSGYGRKKRRQRRRGMAGSALAVRARLGVWGMRVLQTRGFSIREAGGAFGKREKAEEDRYFREKTREQLAALKK
modifications: Fusion protein
- effect on GSIS (INS-1 cells): enhanced GSIS; also recorded: further induced glucose stimulated insulin secretion in a dose dependent manner
